Laboratory results: paper PMC5492955

Target: the single-site mutations V130C and L210C
Test: radioligand binding

Question: How did the glucagon binding (% of WT) turn out when “glucagon (from UniProt P01275) (peptide)” was run?
Answer: 50%
